Laboratory results as given in publication PMC10397247.

Experiments:
4H3112-bA = molecular target: T1, 4H3112-bA; assay: two-hybrid library CCNG1;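 also: natural log of median RNA to DNA barcode read ratio; higher means stronger binding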
T1 chain: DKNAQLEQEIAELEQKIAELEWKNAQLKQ

4H3185-bA = molecular target: T2, 4H3185-bA; assay: two-hybrid library CCNG1;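 also: natural log of median RNA to DNA barcode read ratio; higher means stronger binding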
T2 chain: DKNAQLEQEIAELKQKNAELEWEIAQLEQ

4H331-bA = molecular target: T3, 4H331-bA; assay: two-hybrid library CCNG1;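 also: natural log of median RNA to DNA barcode read ratio; higher means stronger binding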
T3 chain: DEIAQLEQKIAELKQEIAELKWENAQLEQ

4H3354-bA = molecular target: T4, 4H3354-bA; assay: two-hybrid library CCNG1;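 also: natural log of median RNA to DNA barcode read ratio; higher means stronger binding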
T4 chain: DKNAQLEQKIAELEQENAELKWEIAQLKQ

4H338-bA = molecular target: T5, 4H338-bA; assay: two-hybrid library CCNG1;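 also: natural log of median RNA to DNA barcode read ratio; higher means stronger binding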
T5 chain: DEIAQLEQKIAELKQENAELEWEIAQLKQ

4H3427-bA = molecular target: T6, 4H3427-bA; assay: two-hybrid library CCNG1;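 also: natural log of median RNA to DNA barcode read ratio; higher means stronger binding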
T6 chain: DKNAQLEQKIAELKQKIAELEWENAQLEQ

4H346-bA = molecular target: T7, 4H346-bA; assay: two-hybrid library CCNG1
T7 chain: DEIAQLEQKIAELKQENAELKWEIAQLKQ

4H3782-bA = molecular target: T8, 4H3782-bA; assay: two-hybrid library CCNG1
T8 chain: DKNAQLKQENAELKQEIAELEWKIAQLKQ

4H3855-bA = molecular target: T9, 4H3855-bA; assay: two-hybrid library CCNG1
T9 chain: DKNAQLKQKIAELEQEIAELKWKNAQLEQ

4H3926-bA = molecular target: T10, 4H3926-bA; assay: two-hybrid library CCNG1
T10 chain: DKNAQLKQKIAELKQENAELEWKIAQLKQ

4H4001-bA = molecular target: T11, 4H4001-bA; assay: two-hybrid library CCNG1
T11 chain: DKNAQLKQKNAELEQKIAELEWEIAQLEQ

4H4073-bA = molecular target: T12, 4H4073-bA; assay: two-hybrid library CCNG1
T12 chain: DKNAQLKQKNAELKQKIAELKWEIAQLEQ

4H454-bA = molecular target: T13, 4H454-bA; assay: two-hybrid library CCNG1
T13 chain: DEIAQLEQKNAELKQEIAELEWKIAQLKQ

4H457-bA = molecular target: T14, 4H457-bA; assay: two-hybrid library CCNG1
T14 chain: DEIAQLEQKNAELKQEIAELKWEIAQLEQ

4H568-bA = molecular target: T15, 4H568-bA; assay: two-hybrid library CCNG1
T15 chain: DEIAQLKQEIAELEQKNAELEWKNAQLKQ

4H575-bA = molecular target: T16, 4H575-bA; assay: two-hybrid library CCNG1
T16 chain: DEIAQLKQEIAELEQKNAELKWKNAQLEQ

4H607-bA = molecular target: T17, 4H607-bA; assay: two-hybrid library CCNG1
T17 chain: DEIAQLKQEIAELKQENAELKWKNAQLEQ

4H683-bA = molecular target: T18, 4H683-bA; assay: two-hybrid library CCNG1
T18 chain: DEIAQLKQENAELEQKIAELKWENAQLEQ

4H687-bA = molecular target: T19, 4H687-bA; assay: two-hybrid library CCNG1
T19 chain: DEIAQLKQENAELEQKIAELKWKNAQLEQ

4H717-bA = molecular target: T20, 4H717-bA; assay: two-hybrid library CCNG1
T20 chain: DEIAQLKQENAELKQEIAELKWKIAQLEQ

4H72-bA = molecular target: T21, 4H72-bA; assay: two-hybrid library CCNG1
T21 chain: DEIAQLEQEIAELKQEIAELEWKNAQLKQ

4H754-bA = molecular target: T22, 4H754-bA; assay: two-hybrid library CCNG1
T22 chain: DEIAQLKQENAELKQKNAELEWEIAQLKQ

4H780-bA = molecular target: T23, 4H780-bA; assay: two-hybrid library CCNG1
T23 chain: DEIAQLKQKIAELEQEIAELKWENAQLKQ

4H797-bA = molecular target: T24, 4H797-bA; assay: two-hybrid library CCNG1
T24 chain: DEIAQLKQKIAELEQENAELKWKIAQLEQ

4H855-bA = molecular target: T25, 4H855-bA; assay: two-hybrid library CCNG1
T25 chain: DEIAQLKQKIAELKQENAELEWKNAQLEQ

4H883-bA = molecular target: T26, 4H883-bA; assay: two-hybrid library CCNG1
T26 chain: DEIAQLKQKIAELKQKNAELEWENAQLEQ

4H908-bA = molecular target: T27, 4H908-bA; assay: two-hybrid library CCNG1
T27 chain: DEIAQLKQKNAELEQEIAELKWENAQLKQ

4H918-bA = molecular target: T28, 4H918-bA; assay: two-hybrid library CCNG1
T28 chain: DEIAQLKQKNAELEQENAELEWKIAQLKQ

4H953-bA = molecular target: T29, 4H953-bA; assay: two-hybrid library CCNG1
T29 chain: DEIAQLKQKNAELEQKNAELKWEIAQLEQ

4H967-bA = molecular target: T30, 4H967-bA; assay: two-hybrid library CCNG1
T30 chain: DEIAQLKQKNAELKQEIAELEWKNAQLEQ

4H968-bA = molecular target: T31, 4H968-bA; assay: two-hybrid library CCNG1
T31 chain: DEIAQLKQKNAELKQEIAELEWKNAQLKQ

4H3462-bH = molecular target: T32, 4H3462-bH; assay: two-hybrid library CCNG1
T32 chain: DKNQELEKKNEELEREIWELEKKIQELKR

4H3497-bH = molecular target: T33, 4H3497-bH; assay: two-hybrid library CCNG1
T33 chain: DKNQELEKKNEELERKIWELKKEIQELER

4H3613-bH = molecular target: T34, 4H3613-bH; assay: two-hybrid library CCNG1
T34 chain: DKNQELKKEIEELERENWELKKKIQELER

4H3628-bH = molecular target: T35, 4H3628-bH; assay: two-hybrid library CCNG1
T35 chain: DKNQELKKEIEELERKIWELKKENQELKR

4H3926-bH = molecular target: T36, 4H3926-bH; assay: two-hybrid library CCNG1
T36 chain: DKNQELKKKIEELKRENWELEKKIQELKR

4H591-bH = molecular target: T37, 4H591-bH; assay: two-hybrid library CCNG1
T37 chain: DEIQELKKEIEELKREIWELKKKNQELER

4H626-bH = molecular target: T38, 4H626-bH; assay: two-hybrid library CCNG1
T38 chain: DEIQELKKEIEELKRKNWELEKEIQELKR

4H906-bH = molecular target: T39, 4H906-bH; assay: two-hybrid library CCNG1
T39 chain: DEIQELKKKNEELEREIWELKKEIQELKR

O2-bN = molecular target: T40, O2-bN; assay: two-hybrid library CCNG1
T40 chain: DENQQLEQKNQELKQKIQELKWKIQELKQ

4H3365-AA = molecular target: T41, 4H3365-AA; assay: two-hybrid library CCmax
T41 chain: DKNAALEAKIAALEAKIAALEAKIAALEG

4H355-AA = molecular target: T42, 4H355-AA; assay: two-hybrid library CCmax; details: mean of both orientations
T42 chain: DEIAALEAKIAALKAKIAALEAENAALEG

4H3651-AA = molecular target: T43, 4H3651-AA; assay: two-hybrid library CCmax; details: mean of both orientations
T43 chain: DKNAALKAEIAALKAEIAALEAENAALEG

4H3705-AA = molecular target: T44, 4H3705-AA; assay: two-hybrid library CCmax; details: mean of both orientations
T44 chain: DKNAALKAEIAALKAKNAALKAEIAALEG

4H3782-AA = molecular target: T45, 4H3782-AA; assay: two-hybrid library CCmax; details: mean of both orientations
T45 chain: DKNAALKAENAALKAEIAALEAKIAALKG

4H465-AA = molecular target: T46, 4H465-AA; assay: two-hybrid library CCmax; details: mean of both orientations
T46 chain: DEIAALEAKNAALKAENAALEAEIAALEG

4H486-AA = molecular target: T47, 4H486-AA; assay: two-hybrid library CCmax; details: mean of both orientations
T47 chain: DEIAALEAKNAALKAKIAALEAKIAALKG

4H535-AA = molecular target: T48, 4H535-AA; assay: two-hybrid library CCmax; details: mean of both orientations
T48 chain: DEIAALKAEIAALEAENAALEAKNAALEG

4H58-AA = molecular target: T49, 4H58-AA; assay: two-hybrid library CCmax; details: mean of both orientations
T49 chain: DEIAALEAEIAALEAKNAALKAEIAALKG

4H895-AA = molecular target: T50, 4H895-AA; assay: two-hybrid library CCmax; details: mean of both orientations
T50 chain: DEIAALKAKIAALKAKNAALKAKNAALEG

4H_APH = molecular target: T51, 4H_APH; assay: two-hybrid library CCmax; details: mean of both orientations
T51 chain: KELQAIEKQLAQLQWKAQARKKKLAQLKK

4H_BCR = molecular target: T52, 4H_BCR; assay: two-hybrid library CCmax; details: mean of both orientations
T52 chain: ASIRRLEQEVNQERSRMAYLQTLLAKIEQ

4H_GCN4 = assay: two-hybrid library CCmax
Chain of 4H_GCN4 (chain, as listed by the source): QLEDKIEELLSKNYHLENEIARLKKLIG

GCN2_T = assay: two-hybrid library CCmax
P3-AA = molecular target: T53, P3-AA; assay: two-hybrid library CCmax
T53 chain: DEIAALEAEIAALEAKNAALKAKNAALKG

## DKNAQLEQEIAELEQKIAELEWKNAQLKQ [4H3112-bA]
4H3112-bA
  interaction score: 1.17
4H3185-bA
  interaction score: 0.447
4H331-bA
  interaction score: 0.496
4H3354-bA
  interaction score: 0.000615
4H338-bA
  interaction score: -0.842
4H3427-bA
  interaction score: 1.55
4H346-bA
  interaction score: -0.0408
4H3782-bA
  interaction score: -0.731
4H3855-bA
  interaction score: -0.227
4H3926-bA
  interaction score: -0.342
4H4001-bA
  interaction score: -0.41
4H4073-bA
  interaction score: 1.32
4H454-bA
  interaction score: -1.72
4H457-bA
  interaction score: -0.509
4H568-bA
  interaction score: -1.31
4H575-bA
  interaction score: -0.587
4H607-bA
  interaction score: -0.643
4H683-bA
  interaction score: -0.379
4H687-bA
  interaction score: -1.13
4H717-bA
  interaction score: 0.267
4H72-bA
  interaction score: -0.233
4H754-bA
  interaction score: -0.483
4H780-bA
  interaction score: -0.567
4H797-bA
  interaction score: 0.364
4H855-bA
  interaction score: 1.01
4H883-bA
  interaction score: 0.791
4H908-bA
  interaction score: 0.0545
4H918-bA
  interaction score: -1.88
4H953-bA
  interaction score: -0.984
4H967-bA
  interaction score: -0.715
4H968-bA
  interaction score: -1.09

## DKNQELEKKNEELEREIWELEKKIQELKR [4H3462-bH]
4H3462-bH
  interaction score: 0.634
4H3497-bH
  interaction score: 1.43
4H3613-bH
  interaction score: -0.585
4H3628-bH
  interaction score: 0.726
4H3926-bH
  interaction score: 0.869
4H591-bH
  interaction score: -0.285
4H626-bH
  interaction score: -0.748
4H906-bH
  interaction score: 0.0503
O2-bN
  interaction score: 1.13

## DKNAALEAKIAALEAKIAALEAKIAALEG [4H3365-AA]
4H3365-AA
  interaction score: 1.76
4H355-AA
  interaction score: -0.823
4H3651-AA
  interaction score: -0.441
4H3705-AA
  interaction score: -1.25
4H3782-AA
  interaction score: -1.46
4H465-AA
  interaction score: -1.05
4H486-AA
  interaction score: -1.2
4H535-AA
  interaction score: -1.33
4H58-AA
  interaction score: -1.67
4H895-AA
  interaction score: -1.35
4H_APH
  interaction score: -1.21
4H_BCR
  interaction score: -1.47
4H_GCN4
  interaction score: -1.72
GCN2_T
  interaction score: -1.79
P3-AA
  interaction score: -2.3
